# B1: Coiled-coil-helix-coiled-coil-helix domain-containing protein 2 (Homo sapiens), Q9Y6H1 (parent)
# chain: MPRGSRSRTSRMAPPASRAPQMRAAPRPAPVAQPPAAAPPSAVGSSAAAPRQPGLMAQMATTAAGVAVGSAVGHTLGHAITGGFSGGSNAEPARPDITYQEPQGTQPAQQQQPCLYEIKQFLECAQNQGDIKLCEGFNEVLKQCRLANGLA
# partner: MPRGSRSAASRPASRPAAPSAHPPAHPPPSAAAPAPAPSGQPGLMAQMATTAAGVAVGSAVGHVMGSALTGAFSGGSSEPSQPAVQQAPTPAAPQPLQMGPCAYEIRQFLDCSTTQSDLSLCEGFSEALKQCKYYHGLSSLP
# Variants of: B1
# Settings: with chc10_human CHCHD10, Q8WYQ3
row,Variant,effect of a mutation on the interaction
1,MPRGSRSRTSRMAPPASRAPQMRAAPRPAPVAQPPAAAPPSAVGSSAAAPRQPGLMAQMAITAAGVAVGSAVGHTLGHAITGGFSGGSNAEPARPDITYQEPQGTQPAQQQQPCLYEIKQFLECAQNQGDIKLCEGFNEVLKQCRLANGLA [T61I],disrupting interaction strength
2,MPRGSRSRTSRMAPPASRAPQMRAAPRPAPVAQPPAAAPPSAVGSSAAAPRQPGLMAQMATTAAGVAVGSAVGHTLGHAITGGFSGGSNAEPARPDITYQEPQGTQPAQQQQPCLYEIKQFLECAQNQGDIKLCEGFNEVLKQCQLANGLA [R145Q],disrupting interaction strength
